Data taken from PMC7910438, “The TUTase URT1 connects decapping activators and prevents the accumulation of excessively deadenylated mRNAs to avoid siRNA biogenesis” (Nature Communications, 2021).

Target: T1, 6His-GST-URT1 (Arabidopsis thaliana, UniProt O64642 1-764)
T1 construct: URT1, Arabidopsis thaliana, AT2G45620, 764 amino acids; amplified from cDNA; Plasmids in Supplementary Data 7; expression and purification in Supplementary Methods; source: E. coli BL21 DE3, purified; not shown: 6His, N-terminal, kept; GST, N-terminal, kept
T1 sequence (looked up): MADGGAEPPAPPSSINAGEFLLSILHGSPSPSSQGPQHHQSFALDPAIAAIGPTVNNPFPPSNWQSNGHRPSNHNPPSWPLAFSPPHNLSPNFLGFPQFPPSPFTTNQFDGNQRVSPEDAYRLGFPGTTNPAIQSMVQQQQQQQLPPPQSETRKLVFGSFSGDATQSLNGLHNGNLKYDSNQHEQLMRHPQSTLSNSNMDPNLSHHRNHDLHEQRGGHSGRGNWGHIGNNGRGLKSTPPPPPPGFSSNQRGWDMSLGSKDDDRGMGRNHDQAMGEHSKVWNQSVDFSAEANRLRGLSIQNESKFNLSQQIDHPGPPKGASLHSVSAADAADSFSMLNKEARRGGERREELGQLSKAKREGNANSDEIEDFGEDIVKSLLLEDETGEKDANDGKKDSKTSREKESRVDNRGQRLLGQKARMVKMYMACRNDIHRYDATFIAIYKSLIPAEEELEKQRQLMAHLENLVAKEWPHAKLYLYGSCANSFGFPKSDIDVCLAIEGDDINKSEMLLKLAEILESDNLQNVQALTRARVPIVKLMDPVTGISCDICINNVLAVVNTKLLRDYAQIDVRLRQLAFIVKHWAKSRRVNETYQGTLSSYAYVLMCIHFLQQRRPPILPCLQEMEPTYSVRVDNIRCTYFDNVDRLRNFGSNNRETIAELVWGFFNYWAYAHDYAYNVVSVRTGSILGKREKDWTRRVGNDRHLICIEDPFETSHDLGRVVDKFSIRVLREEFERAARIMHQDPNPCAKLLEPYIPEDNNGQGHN
Assay: pull-down; GST pull-down on glutathione sepharose; 10 pmol of each purified protein in 500 µl of 20 mM MOPS pH 7.2, 100 mM KCl, 15% glycerol, 0.1% Tween 20 with 100 ng/µl RNase A, 4 °C; SDS-PAGE, SYPRO Ruby
Details: both partners purified

- binding result: binds
B1: 6His-MBP-DCP5 (natural protein, Arabidopsis thaliana, UniProt Q9C658 1-611, looked up)
chain: MAADNTGSKSSSAADSYVGSLISLTSKSEIRYEGILYNINTDESSIGLQNVRSFGTEGRKKDGPQVPPSDKVYEYILFRGTDIKDLQVKASPPVQPPASTINNDPAIIQSHYPSPMPTSGSLPSTASGSLPDISSHNGQPGQHGMGFQNAMPLYQPGGNLGSWGASPQPPMYWQGFYTPPPNGLPQLHQQSLIRPPHGLPMPNSLQQPLQYPNFNTPPPPTGSSSLQGSSLPEAPSSLFPFSTSSQMLAPSSLPFPGLPPVTLSSSLQSTLQSAPSPSLASEMAPPLLSNKAPITAPPTLPQDTNLLSFSLSTTRATEASTGLPLSNKPSVVTGPISPPQTTPLTSAPVAGVSSSISQDKPKPLLVTPGQLLQSGSSAVSLSPPSTNADKDVEVVQVSSSAGLEQSVPVTSEAQPPILPLPSSARPTQKPNGHSFPNHNGYRGRGRGRGRGAGRSHQVMKFTEDFDFTAMNEKFNKDEVWGHLGKSTTLDGDEDDDSPTVDEAELPKIEAKPVYNKDDFFDSLSSNTIDRESQNSRPRFSEQRKLDTETFGEFSRFRGGRGGRGGYGRNNGYSRGGYGGRGYGGYGGRGGGGGGYGYGGRGQGRGVSNRTT
notes: DECAPPING 5 (DCP5), Arabidopsis thaliana, AT1G26110; amplified from cDNA; source: E. coli BL21 DE3, purified; not shown: 6His, N-terminal, kept; MBP, N-terminal, kept
